# According to publication PMC12390655 (Viruses, 2025):
# Assays:
# [1] = target: bipartite NLS (bpNLS) from the nucleoplasmin; assay: native MS
# [2] = target: eVP24–KPNA5-ΔIBB complex (human | Ebola virus) (UniProt Q05322); assay: native MS
# [3] = target: bipartite NLS (bpNLS) from the nucleoplasmin; assay: fluorescence polarisation
# [4] = target: monopartite NLS peptide (mpNLS) from the SV40 large T antigen (SV40); assay: fluorescence polarisation
substance,measurement,setting,value
eVP24–KPNA5-ΔIBB complex (from UniProt Q05322 11-237),stoichiometry N,[1],1
same,stoichiometry N,[2],2
same,Kd,[3],210 nM
same,Kd,[4],5.2 µM
